Results taken from article PMC8092224.

Biological target: RBD-ferritin fusion protein (SARS-CoV-2 spike RBD-… linker-H. pylori-bullfrog ferritin) (SARS-CoV-2 Wuhan-Hu-1 strain | bullfrog (Rana catesbeiana) | Helicobacter pylori)
Test: SEC; concentrated supernatant (500-kDa MWCO TFF) on HiPrep 16/60 Sephacryl S-500 HR, degassed PBS, 0.4 ml/min; size from LMW/HMW calibration standards; self-assembly of the monomer into the nanoparticle

RBD-ferritin fusion protein (SARS-CoV-2 spike RBD-… linker-H. pylori-bullfrog ferritin)
stoichiometry N: 24
